The record followed here is patent US20260049138A1 (Chugai, published 2026).

The target in this experiment is T1, CD3ε homodimer protein (human, UniProt P07766 23-126, limits assumed, sulfo-tag or biotin label in the ECL assays; amine-coupled to the chip in SPR).
T1 construct: also called human CD3ε homodimer protein; CD3 (CD3ε)
As to the kind of experiment: SPR Biacore T200; CD3ε homodimer on CM4 chip.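 Also: Single-residue variant antibodies injected as analyte over CD3ε homodimer immobilized by amine coupling, run at 25 °C in HBS-EP+ buffer.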

T1 sequence (P07766 23-126 limits assumed): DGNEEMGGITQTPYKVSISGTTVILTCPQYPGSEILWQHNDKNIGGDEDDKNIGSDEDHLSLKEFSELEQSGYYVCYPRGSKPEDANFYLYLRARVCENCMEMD

B1: CE115HA000 N53D one-arm antibody (antibody, human IgG1, kappa, L234A L235A, N297A, name in Kabat numbering)
heavy: QVQLVESGGGVVQPGRSLRLSCAASGFTFSNAWMHWVRQAPGKGLEWVAQIKAKSDNYATYYAESVKGRFTISRDDSKNSLYLQMNSLKTEDTAVYYCRYVHYGAYYGVDAWGQGTTVTVSSASTKGPSVFPLAPSSKSTSGGTAALGCLVKDYFPEPVTVSWNSGALTSGVHTFPAVLQSSGLYSLSSVVTVPSSSLGTQTYICNVNHKPSNTKVDKKVEPKSCDKTHTCPPCPAPEAAGGPSVFLFPPKPKDTLMISRTPEVTCVVVDVSHEDPEVKFNWYVDGVEVHNAKTKPREEQYASTYRVVSVLTVLHQDWLNGKEYKCKVSNKALPAPIEKTISKAKGQPREPQVYTLPPSRCELTKNQVSLSCAVKGFYPSDIAVEWESNGQPENNYKTTPPVLDSDGSFFLVSKLTVDKSRWQQGNVFSCSVMHEALHNHYTQKSLSLSPDYKDDDDK
chain: EPKSSDKTHTCPPCPAPELLGGPSVFLFPPKPKDTLMISRTPEVTCVVVDVSHEDPEVKFNWYVDGVEVHNAKTKPREEQYNSTYRVVSVLTVLHQDWLNGKEYKCKVSNKALPAPIEKTISKAKGQPREPQVCTLPPSRDELTKNQVSLWCLVKGFYPSDIAVEWESNGQPENNYKTTPPVLDSDGSFFLYSKLTVDKSRWQQGNVFSCSVMHEALHNRYTQKSLSLSP
light: DIVMTQSPLSLPVTPGEPASISCRSSQSLVHSNRNTYLHWYQQKPGQAPRLLIYKVSNRFSGVPDRFSGSGSGTDFTLKISRVEAEDVGVYYCGQGTQVPYTFGQGTKLEIKRTVAAPSVFIFPPSDEQLKSGTASVVCLLNNFYPREAKVQWKVDNALQSGNSQESVTEQDSKDSTYSLSSTLTLSKADYEKHKVYACEVTHQGLSSPVTKSFNRGEC
Consider B1, for which the “ratio of amounts bound Z=Y/X (altered form / CE115HA000)” value turned out to be 0.39.

B2: CE115HA000 N53H one-arm antibody (antibody, human IgG1, kappa, L234A L235A, N297A, name in Kabat numbering)
heavy: QVQLVESGGGVVQPGRSLRLSCAASGFTFSNAWMHWVRQAPGKGLEWVAQIKAKSHNYATYYAESVKGRFTISRDDSKNSLYLQMNSLKTEDTAVYYCRYVHYGAYYGVDAWGQGTTVTVSSASTKGPSVFPLAPSSKSTSGGTAALGCLVKDYFPEPVTVSWNSGALTSGVHTFPAVLQSSGLYSLSSVVTVPSSSLGTQTYICNVNHKPSNTKVDKKVEPKSCDKTHTCPPCPAPEAAGGPSVFLFPPKPKDTLMISRTPEVTCVVVDVSHEDPEVKFNWYVDGVEVHNAKTKPREEQYASTYRVVSVLTVLHQDWLNGKEYKCKVSNKALPAPIEKTISKAKGQPREPQVYTLPPSRCELTKNQVSLSCAVKGFYPSDIAVEWESNGQPENNYKTTPPVLDSDGSFFLVSKLTVDKSRWQQGNVFSCSVMHEALHNHYTQKSLSLSPDYKDDDDK
chain: EPKSSDKTHTCPPCPAPELLGGPSVFLFPPKPKDTLMISRTPEVTCVVVDVSHEDPEVKFNWYVDGVEVHNAKTKPREEQYNSTYRVVSVLTVLHQDWLNGKEYKCKVSNKALPAPIEKTISKAKGQPREPQVCTLPPSRDELTKNQVSLWCLVKGFYPSDIAVEWESNGQPENNYKTTPPVLDSDGSFFLYSKLTVDKSRWQQGNVFSCSVMHEALHNRYTQKSLSLSP
light: DIVMTQSPLSLPVTPGEPASISCRSSQSLVHSNRNTYLHWYQQKPGQAPRLLIYKVSNRFSGVPDRFSGSGSGTDFTLKISRVEAEDVGVYYCGQGTQVPYTFGQGTKLEIKRTVAAPSVFIFPPSDEQLKSGTASVVCLLNNFYPREAKVQWKVDNALQSGNSQESVTEQDSKDSTYSLSSTLTLSKADYEKHKVYACEVTHQGLSSPVTKSFNRGEC
Consider B2, for which the “ratio of amounts bound Z=Y/X (altered form / CE115HA000)” value was determined as 0.76.

B3: CE115HA000 N53G one-arm antibody (antibody, human IgG1, kappa, L234A L235A, N297A, name in Kabat numbering)
heavy: QVQLVESGGGVVQPGRSLRLSCAASGFTFSNAWMHWVRQAPGKGLEWVAQIKAKSGNYATYYAESVKGRFTISRDDSKNSLYLQMNSLKTEDTAVYYCRYVHYGAYYGVDAWGQGTTVTVSSASTKGPSVFPLAPSSKSTSGGTAALGCLVKDYFPEPVTVSWNSGALTSGVHTFPAVLQSSGLYSLSSVVTVPSSSLGTQTYICNVNHKPSNTKVDKKVEPKSCDKTHTCPPCPAPEAAGGPSVFLFPPKPKDTLMISRTPEVTCVVVDVSHEDPEVKFNWYVDGVEVHNAKTKPREEQYASTYRVVSVLTVLHQDWLNGKEYKCKVSNKALPAPIEKTISKAKGQPREPQVYTLPPSRCELTKNQVSLSCAVKGFYPSDIAVEWESNGQPENNYKTTPPVLDSDGSFFLVSKLTVDKSRWQQGNVFSCSVMHEALHNHYTQKSLSLSPDYKDDDDK
chain: EPKSSDKTHTCPPCPAPELLGGPSVFLFPPKPKDTLMISRTPEVTCVVVDVSHEDPEVKFNWYVDGVEVHNAKTKPREEQYNSTYRVVSVLTVLHQDWLNGKEYKCKVSNKALPAPIEKTISKAKGQPREPQVCTLPPSRDELTKNQVSLWCLVKGFYPSDIAVEWESNGQPENNYKTTPPVLDSDGSFFLYSKLTVDKSRWQQGNVFSCSVMHEALHNRYTQKSLSLSP
light: DIVMTQSPLSLPVTPGEPASISCRSSQSLVHSNRNTYLHWYQQKPGQAPRLLIYKVSNRFSGVPDRFSGSGSGTDFTLKISRVEAEDVGVYYCGQGTQVPYTFGQGTKLEIKRTVAAPSVFIFPPSDEQLKSGTASVVCLLNNFYPREAKVQWKVDNALQSGNSQESVTEQDSKDSTYSLSSTLTLSKADYEKHKVYACEVTHQGLSSPVTKSFNRGEC
In the case of B3, the “ratio of amounts bound Z=Y/X (altered form / CE115HA000)” value was 0.5.

B4: CE115HA000 N53I one-arm antibody (antibody, human IgG1, kappa, L234A L235A, N297A, name in Kabat numbering)
heavy: QVQLVESGGGVVQPGRSLRLSCAASGFTFSNAWMHWVRQAPGKGLEWVAQIKAKSINYATYYAESVKGRFTISRDDSKNSLYLQMNSLKTEDTAVYYCRYVHYGAYYGVDAWGQGTTVTVSSASTKGPSVFPLAPSSKSTSGGTAALGCLVKDYFPEPVTVSWNSGALTSGVHTFPAVLQSSGLYSLSSVVTVPSSSLGTQTYICNVNHKPSNTKVDKKVEPKSCDKTHTCPPCPAPEAAGGPSVFLFPPKPKDTLMISRTPEVTCVVVDVSHEDPEVKFNWYVDGVEVHNAKTKPREEQYASTYRVVSVLTVLHQDWLNGKEYKCKVSNKALPAPIEKTISKAKGQPREPQVYTLPPSRCELTKNQVSLSCAVKGFYPSDIAVEWESNGQPENNYKTTPPVLDSDGSFFLVSKLTVDKSRWQQGNVFSCSVMHEALHNHYTQKSLSLSPDYKDDDDK
chain: EPKSSDKTHTCPPCPAPELLGGPSVFLFPPKPKDTLMISRTPEVTCVVVDVSHEDPEVKFNWYVDGVEVHNAKTKPREEQYNSTYRVVSVLTVLHQDWLNGKEYKCKVSNKALPAPIEKTISKAKGQPREPQVCTLPPSRDELTKNQVSLWCLVKGFYPSDIAVEWESNGQPENNYKTTPPVLDSDGSFFLYSKLTVDKSRWQQGNVFSCSVMHEALHNRYTQKSLSLSP
light: DIVMTQSPLSLPVTPGEPASISCRSSQSLVHSNRNTYLHWYQQKPGQAPRLLIYKVSNRFSGVPDRFSGSGSGTDFTLKISRVEAEDVGVYYCGQGTQVPYTFGQGTKLEIKRTVAAPSVFIFPPSDEQLKSGTASVVCLLNNFYPREAKVQWKVDNALQSGNSQESVTEQDSKDSTYSLSSTLTLSKADYEKHKVYACEVTHQGLSSPVTKSFNRGEC
Regarding B4, the “ratio of amounts bound Z=Y/X (altered form / CE115HA000)” value was determined as 0.68.

B5: CE115HA000 N53Q one-arm antibody (antibody, human IgG1, kappa, L234A L235A, N297A, name in Kabat numbering)
heavy: QVQLVESGGGVVQPGRSLRLSCAASGFTFSNAWMHWVRQAPGKGLEWVAQIKAKSQNYATYYAESVKGRFTISRDDSKNSLYLQMNSLKTEDTAVYYCRYVHYGAYYGVDAWGQGTTVTVSSASTKGPSVFPLAPSSKSTSGGTAALGCLVKDYFPEPVTVSWNSGALTSGVHTFPAVLQSSGLYSLSSVVTVPSSSLGTQTYICNVNHKPSNTKVDKKVEPKSCDKTHTCPPCPAPEAAGGPSVFLFPPKPKDTLMISRTPEVTCVVVDVSHEDPEVKFNWYVDGVEVHNAKTKPREEQYASTYRVVSVLTVLHQDWLNGKEYKCKVSNKALPAPIEKTISKAKGQPREPQVYTLPPSRCELTKNQVSLSCAVKGFYPSDIAVEWESNGQPENNYKTTPPVLDSDGSFFLVSKLTVDKSRWQQGNVFSCSVMHEALHNHYTQKSLSLSPDYKDDDDK
chain: EPKSSDKTHTCPPCPAPELLGGPSVFLFPPKPKDTLMISRTPEVTCVVVDVSHEDPEVKFNWYVDGVEVHNAKTKPREEQYNSTYRVVSVLTVLHQDWLNGKEYKCKVSNKALPAPIEKTISKAKGQPREPQVCTLPPSRDELTKNQVSLWCLVKGFYPSDIAVEWESNGQPENNYKTTPPVLDSDGSFFLYSKLTVDKSRWQQGNVFSCSVMHEALHNRYTQKSLSLSP
light: DIVMTQSPLSLPVTPGEPASISCRSSQSLVHSNRNTYLHWYQQKPGQAPRLLIYKVSNRFSGVPDRFSGSGSGTDFTLKISRVEAEDVGVYYCGQGTQVPYTFGQGTKLEIKRTVAAPSVFIFPPSDEQLKSGTASVVCLLNNFYPREAKVQWKVDNALQSGNSQESVTEQDSKDSTYSLSSTLTLSKADYEKHKVYACEVTHQGLSSPVTKSFNRGEC
As for B5, the “ratio of amounts bound Z=Y/X (altered form / CE115HA000)” value was found to be 1.1.

B6: CE115HA000 N53K one-arm antibody (antibody, human IgG1, kappa, L234A L235A, N297A, name in Kabat numbering)
heavy: QVQLVESGGGVVQPGRSLRLSCAASGFTFSNAWMHWVRQAPGKGLEWVAQIKAKSKNYATYYAESVKGRFTISRDDSKNSLYLQMNSLKTEDTAVYYCRYVHYGAYYGVDAWGQGTTVTVSSASTKGPSVFPLAPSSKSTSGGTAALGCLVKDYFPEPVTVSWNSGALTSGVHTFPAVLQSSGLYSLSSVVTVPSSSLGTQTYICNVNHKPSNTKVDKKVEPKSCDKTHTCPPCPAPEAAGGPSVFLFPPKPKDTLMISRTPEVTCVVVDVSHEDPEVKFNWYVDGVEVHNAKTKPREEQYASTYRVVSVLTVLHQDWLNGKEYKCKVSNKALPAPIEKTISKAKGQPREPQVYTLPPSRCELTKNQVSLSCAVKGFYPSDIAVEWESNGQPENNYKTTPPVLDSDGSFFLVSKLTVDKSRWQQGNVFSCSVMHEALHNHYTQKSLSLSPDYKDDDDK
chain: EPKSSDKTHTCPPCPAPELLGGPSVFLFPPKPKDTLMISRTPEVTCVVVDVSHEDPEVKFNWYVDGVEVHNAKTKPREEQYNSTYRVVSVLTVLHQDWLNGKEYKCKVSNKALPAPIEKTISKAKGQPREPQVCTLPPSRDELTKNQVSLWCLVKGFYPSDIAVEWESNGQPENNYKTTPPVLDSDGSFFLYSKLTVDKSRWQQGNVFSCSVMHEALHNRYTQKSLSLSP
light: DIVMTQSPLSLPVTPGEPASISCRSSQSLVHSNRNTYLHWYQQKPGQAPRLLIYKVSNRFSGVPDRFSGSGSGTDFTLKISRVEAEDVGVYYCGQGTQVPYTFGQGTKLEIKRTVAAPSVFIFPPSDEQLKSGTASVVCLLNNFYPREAKVQWKVDNALQSGNSQESVTEQDSKDSTYSLSSTLTLSKADYEKHKVYACEVTHQGLSSPVTKSFNRGEC
For the molecule B6, the “ratio of amounts bound Z=Y/X (altered form / CE115HA000)” value was 0.78.
